The series concerns O=P(O)(O)O[C@H]1O[C@H](CO)[C@@H](O)[C@H](O)[C@H]1O. The experiment in a line: YidA phosphatase activity (malachite green), dephosphorylation of Glc-1-P. It is filed as biochemical, Salmonella typhimurium. From the text: The sugar phosphate phosphatase produced from an engineered cell can be identical to a naturally occurring one, such as YidA or YihX, but placed within a cell in which it is not naturally produced. Examples of this approach are given throughout. The sequence for YidA from Salmonella typhimurium can be found, for example, in NC_492731.1. This sequence corresponds to SEQ ID NO: 1. The gene ID is 1255358. The sequence for YihX from Salmonella typhimurium can be found, for example, in NC_462906.1. This corresponds to SEQ ID NO: 2. The gene ID is 1255552. In one example, genes encoding these proteins can be placed within a cell in which it is not naturally occurring.
Nearly homogeneous recombinant Salmonella YidA by overexpressing it in E. coli SixPack cells were obtained (Lipinszki et al. 2018) (FIG. 3A). N-terminal fusions with a small ubiquitin-like modifier (SUMO) domain were engineered to enhance solubility (Marblestone et al. 2006) and a His6 tag to facilitate affinity purification (FIG. 3A). […] Since YidA is a Mg^2+-dependent phosphatase, its activity with Glc-1-P in the presence of 0-5 mM MgCl2 was first tested and determined that 3 mM MgCl2 was optimal (FIG. 5). […]

Where “and” joins values, the source holds several entries; their conditions need not be identical. Equal values may be shown once.

Take “Salmonella typhimurium YidA, recombinant wild type, SEQ ID NO: 1 (Salmonella enterica subsp. enterica serovar Typhimurium str. LT2)”: the Km (commonly the substrate concentration at which the rate is half of its maximum) reads like this: (other: mean ± SE of two independent trials, pH 8.0) 1340 ± 20 µM and 1350 ± 10 µM; (other: single trials, ± curve-fit error, pH 8, 37° C., 3 mM MgCl2, 37.0 °C) 1340 ± 300 µM and 1350 ± 300 µM.

The record behind these values is patent publication US20240247301A1, “DIAGNOSTIC ASSAY FOR CLASSIC INBORN GALACTOSEMIA” (Ohio State Innovation Foundation, priority 2022, published 2024).
